The assay has as its target M. tuberculosis RNA polymerase holoenzyme (M. tuberculosis) (UniProt P9WGZ1). The experiment in a line: single-molecule fluorescence.

Broadly, the stoichiometry N is the number of molecules, sites or subunits per partner or assembly.

In the case of “M. tuberculosis GlnR C60SL147C labelled with Alexa Fluor 647 (from UniProt O53830 1-255) (natural protein)”, the stoichiometry N came to 4.

The record behind these values is paper doi:10.1101/2023.01.09.523197.
